± gives the uncertainty stated by the source.
B1: Mineralocorticoid receptor, residues 600 to 675; numbered along this chain, P08235 (parent)
chain: SKICLVCGDEASGCHYGVVTCGSCKVFFKRAVEGQHNYLCAGRNDCIIDKIRRKNCPACRLQKCLQAGMNLGARKS

Variants of: B1
Assay: abundance fitness (aPCA) (normalised: wild type 0, dead -1); higher = more abundant; growth selection in yeast, the domain comes from the species named
Conditions: Homo sapiens

Row | Variant | abundance fitness
1 | SKICLVCGDEASGCHYGVVTCGSCKVFFKRAVEGQHNYLCAGRNDCIDDKIRRKNCPACRLQKCLQAGMNLGARKS [I48D] | -0.107 ± 0.093
2 | SKICLVCGDEASGCHYGVVTCGSCKVFFKRAVEGQHNYLCAGRNDCIEDKIRRKNCPACRLQKCLQAGMNLGARKS [I48E] | -0.002 ± 0.056
3 | SKICLVCGDEASGCHYGVVTCGSCKVFFKRAVEGQHNYLCAGRNDCIFDKIRRKNCPACRLQKCLQAGMNLGARKS [I48F] | -0.104 ± 0.044
4 | SKICLVCGDEASGCHYGVVTCGSCKVFFKRAVEGQHNYLCAGRNDCIGDKIRRKNCPACRLQKCLQAGMNLGARKS [I48G] | -0.033 ± 0.04
5 | SKICLVCGDEASGCHYGVVTCGSCKVFFKRAVEGQHNYLCAGRNDCIHDKIRRKNCPACRLQKCLQAGMNLGARKS [I48H] | -0.2 ± 0.075
6 | SKICLVCGDEASGCHYGVVTCGSCKVFFKRAVEGQHNYLCAGRNDCIKDKIRRKNCPACRLQKCLQAGMNLGARKS [I48K] | -0.082 ± 0.06
7 | SKICLVCGDEASGCHYGVVTCGSCKVFFKRAVEGQHNYLCAGRNDCILDKIRRKNCPACRLQKCLQAGMNLGARKS [I48L] | -0.077 ± 0.03
8 | SKICLVCGDEASGCHYGVVTCGSCKVFFKRAVEGQHNYLCAGRNDCIMDKIRRKNCPACRLQKCLQAGMNLGARKS [I48M] | 0.021 ± 0.048
9 | SKICLVCGDEASGCHYGVVTCGSCKVFFKRAVEGQHNYLCAGRNDCINDKIRRKNCPACRLQKCLQAGMNLGARKS [I48N] | -0.015 ± 0.062
10 | SKICLVCGDEASGCHYGVVTCGSCKVFFKRAVEGQHNYLCAGRNDCIPDKIRRKNCPACRLQKCLQAGMNLGARKS [I48P] | -0.131 ± 0.043
11 | SKICLVCGDEASGCHYGVVTCGSCKVFFKRAVEGQHNYLCAGRNDCIQDKIRRKNCPACRLQKCLQAGMNLGARKS [I48Q] | -0.013 ± 0.049
12 | SKICLVCGDEASGCHYGVVTCGSCKVFFKRAVEGQHNYLCAGRNDCIRDKIRRKNCPACRLQKCLQAGMNLGARKS [I48R] | -0.147 ± 0.036
13 | SKICLVCGDEASGCHYGVVTCGSCKVFFKRAVEGQHNYLCAGRNDCISDKIRRKNCPACRLQKCLQAGMNLGARKS [I48S] | -0.122 ± 0.032
14 | SKICLVCGDEASGCHYGVVTCGSCKVFFKRAVEGQHNYLCAGRNDCITDKIRRKNCPACRLQKCLQAGMNLGARKS [I48T] | -0.026 ± 0.035
15 | SKICLVCGDEASGCHYGVVTCGSCKVFFKRAVEGQHNYLCAGRNDCIVDKIRRKNCPACRLQKCLQAGMNLGARKS [I48V] | -0.035 ± 0.038
16 | SKICLVCGDEASGCHYGVVTCGSCKVFFKRAVEGQHNYLCAGRNDCIWDKIRRKNCPACRLQKCLQAGMNLGARKS [I48W] | -0.072 ± 0.058
17 | SKICLVCGDEASGCHYGVVTCGSCKVFFKRAVEGQHNYLCAGRNDCIYDKIRRKNCPACRLQKCLQAGMNLGARKS [I48Y] | -0.176 ± 0.063
18 | SKICLVCGDEASGCHYGVVTCGSCKVFFKRAVEGQHNYLCAGRNDCIIAKIRRKNCPACRLQKCLQAGMNLGARKS [D49A] | -0.141 ± 0.031

Row | Variant | abundance fitness
19 | SKICLVCGDEASGCHYGVVTCGSCKVFFKRAVEGQHNYLCAGRNDCIIEKIRRKNCPACRLQKCLQAGMNLGARKS [D49E] | -0.04 ± 0.038
20 | SKICLVCGDEASGCHYGVVTCGSCKVFFKRAVEGQHNYLCAGRNDCIIFKIRRKNCPACRLQKCLQAGMNLGARKS [D49F] | -0.251 ± 0.038
21 | SKICLVCGDEASGCHYGVVTCGSCKVFFKRAVEGQHNYLCAGRNDCIIHKIRRKNCPACRLQKCLQAGMNLGARKS [D49H] | -0.276 ± 0.054
22 | SKICLVCGDEASGCHYGVVTCGSCKVFFKRAVEGQHNYLCAGRNDCIIIKIRRKNCPACRLQKCLQAGMNLGARKS [D49I] | -0.274 ± 0.047
23 | SKICLVCGDEASGCHYGVVTCGSCKVFFKRAVEGQHNYLCAGRNDCIIKKIRRKNCPACRLQKCLQAGMNLGARKS [D49K] | -0.167 ± 0.049
24 | SKICLVCGDEASGCHYGVVTCGSCKVFFKRAVEGQHNYLCAGRNDCIILKIRRKNCPACRLQKCLQAGMNLGARKS [D49L] | -0.221 ± 0.039
25 | SKICLVCGDEASGCHYGVVTCGSCKVFFKRAVEGQHNYLCAGRNDCIIMKIRRKNCPACRLQKCLQAGMNLGARKS [D49M] | -0.3 ± 0.079
26 | SKICLVCGDEASGCHYGVVTCGSCKVFFKRAVEGQHNYLCAGRNDCIINKIRRKNCPACRLQKCLQAGMNLGARKS [D49N] | -0.054 ± 0.043
27 | SKICLVCGDEASGCHYGVVTCGSCKVFFKRAVEGQHNYLCAGRNDCIIPKIRRKNCPACRLQKCLQAGMNLGARKS [D49P] | -0.327 ± 0.049
28 | SKICLVCGDEASGCHYGVVTCGSCKVFFKRAVEGQHNYLCAGRNDCIIRKIRRKNCPACRLQKCLQAGMNLGARKS [D49R] | -0.287 ± 0.029
29 | SKICLVCGDEASGCHYGVVTCGSCKVFFKRAVEGQHNYLCAGRNDCIISKIRRKNCPACRLQKCLQAGMNLGARKS [D49S] | -0.041 ± 0.028
30 | SKICLVCGDEASGCHYGVVTCGSCKVFFKRAVEGQHNYLCAGRNDCIIVKIRRKNCPACRLQKCLQAGMNLGARKS [D49V] | -0.219 ± 0.039
31 | SKICLVCGDEASGCHYGVVTCGSCKVFFKRAVEGQHNYLCAGRNDCIIWKIRRKNCPACRLQKCLQAGMNLGARKS [D49W] | -0.258 ± 0.038
32 | SKICLVCGDEASGCHYGVVTCGSCKVFFKRAVEGQHNYLCAGRNDCIIYKIRRKNCPACRLQKCLQAGMNLGARKS [D49Y] | -0.211 ± 0.048
33 | SKICLVCGDEASGCHYGVVTCGSCKVFFKRAVEGQHNYLCAGRNDCIIDKARRKNCPACRLQKCLQAGMNLGARKS [I51A] | -0.018 ± 0.048
34 | SKICLVCGDEASGCHYGVVTCGSCKVFFKRAVEGQHNYLCAGRNDCIIDKCRRKNCPACRLQKCLQAGMNLGARKS [I51C] | -0.051 ± 0.073
35 | SKICLVCGDEASGCHYGVVTCGSCKVFFKRAVEGQHNYLCAGRNDCIIDKDRRKNCPACRLQKCLQAGMNLGARKS [I51D] | -0.083 ± 0.1
36 | SKICLVCGDEASGCHYGVVTCGSCKVFFKRAVEGQHNYLCAGRNDCIIDKERRKNCPACRLQKCLQAGMNLGARKS [I51E] | -0.048 ± 0.057
